{"source": "patent US20030235860A1", "about": "“Interactions between AR, ER, TR2, and TR4” (priority 1999, published 2003)", "molecules": {"B1": {"name": "TR4: human testicular orphan nuclear receptor 4, SEQ ID NO:16; expressed from plasmid or in vitro translated (protein)", "chain": "MTSPSPRIQIISTDSAVASPQRIQGSEPASGPLSVFTSLNKEKIVTDQQTGQKIQIVTAVDASGSPKQQFILTSPDGAGTGKVILASPETSSAKQLIFTTSDNLVPGRIQIVTDSASVERLLGKTDVQRPQVVEYCVVCGDKASGRHYGAVSCEGCKGFFKRSVRKNLTYSCRSSQDCIINKHHRNRCQFCRLKKCLEMGMKMESVQSERKPFDVQREKPSNCAASTEKIYIRKDLRSPLIATPTFVADKDGARQTGLLDPGMLVNIQQPLIREDGTVLLATDSKAETSQGALGTLANVVTSLANLSESLNNGDTSEIQPEDQSASEITRAFDTLAKALNTTDSSSSPSLADGIDTSGGGSIHVISRDQSTPIIEVEGPLLSDTHVTFKLTMPSPMPEYLNVHYICESASRLLFLSMHRARSIPAFQGLGQDCNTSLVRACWNELFTLGLAQCAQVMSLSTILAAIVNHLQNSIQEDKLSGDRIKQVMEHIWKLQEFCNSMANWDIDGYEYAYLKAIVLFSPDHPGLTSTSQIEKFQEKAQMELQDYVQKTYSEDTYRLARILVRLPALRLMSSNITEELFFTGLIGNVSIDSIIPYILKMETAEYNGQITGVSL"}, "B2": {"name": "TR2: human testicular orphan nuclear receptor 2, 603 amino acids (protein, UniProt P13056 1-603, looked up)", "chain": "MATIEEIAHQIIEQQMGEIVTEQQTGQKIQIVTALDHNTQGKQFILTNHDGSTPSKVILARQDSTPGKVFLTTPDAAGVNQLFFTTPDLSAQHLQLLTDNSPDQGPNKVFDLCVVCGDKASGRHYGAVTCEGCKGFFKRSIRKNLVYSCRGSKDCIINKHHRNRCQYCRLQRCIAFGMKQDSVQCERKPIEVSREKSSNCAASTEKIYIRKDLRSPLTATPTFVTDSESTRSTGLLDSGMFMNIHPSGVKTESAVLMTSDKAESCQGDLSTLANVVTSLANLGKTKDLSQNSNEMSMIESLSNDDTSLCEFQEMQTNGDVSRAFDTLAKALNPGESTACQSSVAGMEGSVHLITGDSSINYTEKEGPLLSDSHVAFRLTMPSPMPEYLNVHYIGESASRLLFLSMHWALSIPSFQALGQENSISLVKAYWNELFTLGLAQCWQVMNVATILATFVNCLHNSLQQDKMSTERRKLLMEHIFKLQEFCNSMVKLCIDGYEYAYLKAIVLFSPDHPSLENMEQIEKFQEKAYVEFQDYITKTYPDDTYRLSRLLLRLPALRLMNATITEELFFKGLIGNIRIDSVIPHILKMEPADYNSQIIGHSI", "modifications": "full-length", "notes": "human testicular orphan nuclear receptor 2, 603 amino acids"}}, "type_in_all_cases": "cell-based", "key": {"[1]": {"molecular_target": "T1, interaction between the GAL4-ER and VPI6-TR2 (Homo sapiens, UniProt P03372, G400V)", "T1 construct": "GAL4-DBD fused with ER-LBD (GAL4-ER, aa 282 to 595); expressed in transfected cells; host or cells: H1299, PC-3", "T1 sequence (P03372 282-595 G400V)": "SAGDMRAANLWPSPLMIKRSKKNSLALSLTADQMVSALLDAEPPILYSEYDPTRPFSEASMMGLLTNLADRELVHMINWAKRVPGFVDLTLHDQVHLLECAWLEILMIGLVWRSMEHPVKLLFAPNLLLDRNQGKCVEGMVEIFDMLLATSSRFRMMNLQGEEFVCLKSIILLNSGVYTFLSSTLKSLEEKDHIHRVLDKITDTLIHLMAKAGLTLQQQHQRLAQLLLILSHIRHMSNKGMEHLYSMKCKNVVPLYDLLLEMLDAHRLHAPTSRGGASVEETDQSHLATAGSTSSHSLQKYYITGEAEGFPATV", "T1 sequence (P13056 1-603 partner)": "B2 chain", "experiment": "Mammalian two-hybrid assay GAL4-ER / VP16-TR2", "details": "PC-3 cells; presence of E2; co-transfection of blocker plasmid", "experimental": "Transfections were performed using the calcium-phosphate precipitation method described above. […] 3 μg of a VPI6-TR2 expression plasmid and 3 μg pG5-CAT reporter plasmid. CAT assays were performed as described above.\nCells were also transfected with a β-galactosidase expression plasmid, pCMV-β-gal, as an internal control for transfection efficiency."}, "[2]": {"tested_on": "pS2", "experiment": "Northern blot of pS2 in MCF-7-TR4 cells", "details": "2 μg/ml Dox, E2"}, "[3]": {"molecular_target": "T2, TR2 (Homo sapiens, UniProt P13056)", "T2 sequence (P13056 1-603)": "B2 chain", "experiment": "TR2-mediated transactivation reporter assay", "details": "PC-3 cells; 1 μg expression plasmid", "experimental": "Transfections and chloramphenicol acetyltransferase (CAT) assays were performed as described previously. Yeh, & Chang, Proc. Natl. Acad. Sci. 93, 5517-5521 (1996). Briefly, 4×10^5 cells were plated in 60-mm dishes and cultured for 24 h, and then the medium was changed to phenol red free DMEM with 5% charcoal-stripped FCS 2 h before transfection. The cells were co-transfected with TR2 and/or ER expression plasmids with 2 μg of TR2-TK-CAT reporter or 1 μg of ERE-CAT reporter gene plasmid, as indicated in the Figures, by using the calcium phosphate precipitation method. A β-gal actosidase expression plasmid, pCMV-β-gal, was transfected in all transfections as an internal control for normalizing transfection efficiency. The total amount of DNA was adjusted up to 10.5 μg with parent vectors, pSG5 or pCMV in each transcriptional activity assay. […] The cells were then harvested and whole cell extracts were used for CAT assay. The CAT activity was quantitated by Phosphorlmager (Molecular Dynamics). Data are presented as means±S.D. of at least three independent experiments.\nThe CAT reporter assay was used to study the potential consequence of the formation of heterodimers between the TR2 and ER. […] More specifically, H1299 cells were transiently cotransfected with 2 μg of DR4-TK-CAT reporter plasmid and 3 μg of TR2 expression plasmid together with increasing amounts of the ER expression vector. […] Cells were also transfected with internal control reporter plasmid, pCMV-β-gal, as an internal control for transfection efficiency. Luciferase activity was then analyzed following manufacturer's instructions (Promega). […] Similar results were obtained when the DR4-TK-CAT reporter with DR1-HBV-LUC were replaced, another TR2 response element (FIG. 7C).\nThis conclusion was further confirmed by using the chimera receptor, TR2-androgen receptor (AR) ARp-TR2, which was generated by swapping TR2 proximal box (P-box) with that found in the AR. […] Luciferase activity was then analyzed following manufacturer's instructions (Promega). […]"}, "[4]": {"tested_on": "MCF7-TR2 cells", "experiment": "Cell cycle profile by flow cytometry, MCF7-TR2 cells", "details": "3 days, E2, or E2 with doxycycline-induced TR2", "experimental": "(A) Growth assays were performed by MTT method as instructed by manufacturer (Sigma). 5×10^3 MCF7-pBIG and MCF7-TR2 cells were seeded in 24-well plates and incubated in RPMI with 10% CD-FCS for 48 h. […] After 3- and 5-day treatment, cells were harvested for MTT assay. Data represents the relative folds of MTT O.D.570 values at day 5 divided by that at day 3. […] Cells were then trypsinized and fixed overnight in 70% Ethanol. After cells were incubated with 1 mg/ml RNase A (Sigma) and propidium iodide (Roche Molecular Biochemicals), the DNA contents of cells were measured by a flow cytometry. (C) Percentage of growth suppression by TR2. MCF7-TR2 cells were seeded at 5×10^3 cells per well in 24-well plates. […] The treatments were changed every two days. The indices of cell growth were determined by MTT assay. The MTT values from cells without doxycycline were set as 100% in each kind of treatment. Values are represented by the percentage of growth suppression from cells with doxycycline to that without doxycycline."}}, "note": "No end group written: not given here."}
{"molecule": "ER-#6: interaction blocker, ER fragment aa 312-340, as HA-tagged peptide, expression plasmid or cleaved peptide (ADQMVSALLDAEPPILYSEYDPTRPFSEA; also: HA tag (position not given here); UniProt P03372 312-340, looked up, fragment)", "values": [{"measurement": "ER-TR2 interaction (GAL4-ER / VP16-TR2, pG5-CAT)", "setting": "[1]", "result": "suppressed"}]}
{"molecule": "B1", "values": [{"measurement": "Expression of ER endogenous target gene pS2", "setting": "[2]", "result": "repress"}]}
{"molecule": "B2", "values": [{"measurement": "DR1-HBV-LUC activity", "setting": "[3]", "result": "induced"}, {"measurement": "Cells in G1", "setting": "[4]", "result": 58.1, "unit": "%"}, {"measurement": "Cells in S", "setting": "[4]", "result": 14.5, "unit": "%"}]}
